Consider one molecule from paper PMC5059767 (2016).

The test deals with His-PKAC (human wild-type PKAC) (human, UniProt P17612 1-351). Description: ITC. In general terms: ITC needs no label: the signal is the heat of the interaction.

B1: 36i peptide (25 aa ARHGAP36 pseudosubstrate motif) (peptide)
peptide: EPTLPREFTRRGRRGAVSVDSLAEL
As usually defined, the Kd is the equilibrium constant for the complex coming apart. Higher therefore signals a looser complex. The molecule B1 displayed a Kd of 860 nM.
